B1: Zinc finger protein 473 (Homo sapiens), Q8WTR7 (parent)
chain: MAEEFVTLKDVGMDFTLGDWEQLGLEQGDTFWDTALDNCQDLFLLDPPRPNLTSHPDGSEDLEPLAGGSPEATSPDVTETKNSPLMEDFFEEGFSQEIIEMLSKDGFWNSNFGEACIEDTWLDSLLGDPESLLRSDIATNGESPTECKSHELKRGLSPVSTVSTGEDSMVHNVSEKTLTPAKSKEYRGEFFSYSDHSQQDSVQEGEKPYQCSECGKSFSGSYRLTQHWITHTREKPTVHQECEQGFDRNASLSVYPKTHTGYKFYVCNEYGTTFSQSTYLWHQKTHTGEKPCKSQDSDHPPSHDTQPGEHQKTHTDSKSYNCNECGKAFTRIFHLTRHQKIHTRKRYECSKCQATFNLRKHLIQHQKTHAAKTTSECQECGKIFRHSSLLIEHQALHAGEEPYKCNERGKSFRHNSTLKIHQRVHSGEKPYKCSECGKAFHRHTHLNEHRRIHTGYRPHKCQECVRSFSRPSHLMRHQAIHTAEKPYSCAECKETFSDNNRLVQHQKMHTVKTPYECQECGERFICGSTLKCHESVHAREKQGFFVSGKILDQNPEQKEKCFKCNKCEKTFSCSKYLTQHERIHTRGVKPFECDQCGKAFGQSTRLIHHQRIHSRVRLYKWGEQGKAISSASLIKLQSFHTKEHPFKCNECGKTFSHSAHLSKHQLIHAGENPFKCSKCDRVFTQRNYLVQHERTHARKKPLVCNECGKTFRQSSCLSKHQRIHSGEKPYVCDYCGKAFGLSAELVRHQRIHTGEKPYVCQECGKAFTQSSCLSIHRRVHTGEKPYRCGECGKAFAQKANLTQHQRIHTGEKPYSCNVCGKAFVLSAHLNQHLRVHTQETLYQCQRCQKAFRCHSSLSRHQRVHNKQQYCL
B2: 1-aminocyclopropane-1-carboxylate synthase-like protein 1 (Homo sapiens), Q96QU6 (parent)
chain: MFTLPQKDFRAPTTCLGPTCMQDLGSSHGEDLEGECSRKLDQKLPELRGVGDPAMISSDTSYLSSRGRMIKWFWDSAEEGYRTYHMDEYDEDKNPSGIINLGTSENKLCFDLLSWRLSQRDMQRVEPSLLQYADWRGHLFLREEVAKFLSFYCKSPVPLRPENVVVLNGGASLFSALATVLCEAGEAFLIPTPYYGAITQHVCLYGNIRLAYVYLDSEVTGLDTRPFQLTVEKLEMALREAHSEGVKVKGLILISPQNPLGDVYSPEELQEYLVFAKRHRLHVIVDEVYMLSVFEKSVGYRSVLSLERLPDPQRTHVMWATSKDFGMSGLRFGTLYTENQDVATAVASLCRYHGLSGLVQYQMAQLLRDRDWINQVYLPENHARLKAAHTYVSEELRALGIPFLSRGAGFFIWVDLRKYLPKGTFEEEMLLWRRFLDNKVLLSFGKAFECKEPGWFRFVFSDQVHRLCLGMQRVQQVLAGKSQVAEDPRPSQSQEPSDQRR
partner: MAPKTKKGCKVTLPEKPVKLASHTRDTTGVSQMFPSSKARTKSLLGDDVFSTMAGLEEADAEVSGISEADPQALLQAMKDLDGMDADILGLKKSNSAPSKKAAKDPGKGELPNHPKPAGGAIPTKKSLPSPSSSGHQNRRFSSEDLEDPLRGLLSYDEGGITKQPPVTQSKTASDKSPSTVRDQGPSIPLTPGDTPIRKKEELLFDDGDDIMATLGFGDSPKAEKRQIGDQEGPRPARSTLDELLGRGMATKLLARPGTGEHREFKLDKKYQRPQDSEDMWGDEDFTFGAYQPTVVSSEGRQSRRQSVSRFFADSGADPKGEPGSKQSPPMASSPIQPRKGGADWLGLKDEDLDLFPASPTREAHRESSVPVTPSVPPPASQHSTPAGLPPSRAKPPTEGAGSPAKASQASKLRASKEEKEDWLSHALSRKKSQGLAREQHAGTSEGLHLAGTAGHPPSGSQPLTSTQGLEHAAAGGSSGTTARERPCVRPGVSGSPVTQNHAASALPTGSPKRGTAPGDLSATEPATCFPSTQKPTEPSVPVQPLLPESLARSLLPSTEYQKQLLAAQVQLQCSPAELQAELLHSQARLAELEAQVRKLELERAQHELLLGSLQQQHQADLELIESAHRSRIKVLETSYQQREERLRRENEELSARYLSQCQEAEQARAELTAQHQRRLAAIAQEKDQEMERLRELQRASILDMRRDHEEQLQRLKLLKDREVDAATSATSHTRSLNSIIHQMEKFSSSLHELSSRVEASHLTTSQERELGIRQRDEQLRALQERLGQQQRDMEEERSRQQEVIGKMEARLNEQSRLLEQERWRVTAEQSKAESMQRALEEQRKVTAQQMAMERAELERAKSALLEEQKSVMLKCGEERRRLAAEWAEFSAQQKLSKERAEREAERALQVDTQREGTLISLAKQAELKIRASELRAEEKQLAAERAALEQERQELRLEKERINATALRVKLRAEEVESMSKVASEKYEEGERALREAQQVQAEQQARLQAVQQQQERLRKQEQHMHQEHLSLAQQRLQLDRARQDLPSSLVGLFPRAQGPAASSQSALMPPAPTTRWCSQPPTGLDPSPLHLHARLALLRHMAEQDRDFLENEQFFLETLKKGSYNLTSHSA
B3: Splicing factor 45 (Homo sapiens), Q96I25 (parent)
chain: MSLYDDLGVETSDSKTEGWSKNFKLLQSQLQVKKAALTQAKSQRTKQSTVLAPVIDLKRGGSSDDRQIVDTPPHVAAGLKDPVPSGFSAGEVLIPLADEYDPMFPNDYEKVVKRQREERQRQRELERQKEIEEREKRRKDRHEASGFARRPDPDSDEDEDYERERRKRSMGGAAIAPPTSLVEKDKELPRDFPYEEDSRPRSQSSKAAIPPPVYEEQDRPRSPTGPSNSFLANMGGTVAHKIMQKYGFREGQGLGKHEQGLSTALSVEKTSKRGGKIIVGDATEKDASKKSDSNPLTEILKCPTKVVLLRNMVGAGEVDEDLEVETKEECEKYGKVGKCVIFEIPGAPDDEAVRIFLEFERVESAIKAVVDLNGRYFGGRVVKACFYNLDKFRVLDLAEQV
B4: Neurogenin-3 (Homo sapiens), Q9Y4Z2 (parent)
chain: MTPQPSGAPTVQVTRETERSFPRASEDEVTCPTSAPPSPTRTRGNCAEAEEGGCRGAPRKLRARRGGRSRPKSELALSKQRRSRRKKANDRERNRMHNLNSALDALRGVLPTFPDDAKLTKIETLRFAHNYIWALTQTLRIADHSLYALEPPAPHCGELGSPGGSPGDWGSLYSPVSQAGSLSPAASLEERPGLLGATFSACLSPGSLAFSDFL
B5: Kinetochore protein NDC80 homolog (Homo sapiens), O14777 (parent)
chain: MKRSSVSSGGAGRLSMQELRSQDVNKQGLYTPQTKEKPTFGKLSINKPTSERKVSLFGKRTSGHGSRNSQLGIFSSSEKIKDPRPLNDKAFIQQCIRQLCEFLTENGYAHNVSMKSLQAPSVKDFLKIFTFLYGFLCPSYELPDTKFEEEVPRIFKDLGYPFALSKSSMYTVGAPHTWPHIVAALVWLIDCIKIHTAMKESSPLFDDGQPWGEETEDGIMHNKLFLDYTIKCYESFMSGADSFDEMNAELQSKLKDLFNVDAFKLESLEAKNRALNEQIARLEQEREKEPNRLESLRKLKASLQGDVQKYQAYMSNLESHSAILDQKLNGLNEEIARVELECETIKQENTRLQNIIDNQKYSVADIERINHERNELQQTINKLTKDLEAEQQKLWNEELKYARGKEAIETQLAEYHKLARKLKLIPKGAENSKGYDFEIKFNPEAGANCLVKYRAQVYVPLKELLNETEEEINKALNKKMGLEDTLEQLNAMITESKRSVRTLKEEVQKLDDLYQQKIKEAEEEDEKCASELESLEKHKHLLESTVNQGLSEAMNELDAVQREYQLVVQTTTEERRKVGNNLQRLLEMVATHVGSVEKHLEEQIAKVDREYEECMSEDLSENIKEIRDKYEKKATLIKSSEE
B6: Isoform 1 of Nucleoporin p54 (Homo sapiens), Q7Z3B4-1 (parent)
chain: MAFNFGAPSGTSGTAAATAAPAGGFGGFGTTSTTAGSAFSFSAPTNTGTTGLFGGTQNKGFGFGTGFGTTTGTSTGLGTGLGTGLGFGGFNTQQQQQTTLGGLFSQPTQAPTQSNQLINTASALSAPTLLGDERDAILAKWNQLQAFWGTGKGYFNNNIPPVEFTQENPFCRFKAVGYSCMPSNKDEDGLVVLVFNKKETEIRSQQQQLVESLHKVLGGNQTLTVNVEGTKTLPDDQTEVVIYVVERSPNGTSRRVPATTLYAHFEQANIKTQLQQLGVTLSMTRTELSPAQIKQLLQNPPAGVDPIIWEQAKVDNPDSEKLIPVPMVGFKELLRRLKVQDQMTKQHQTRLDIISEDISELQKNQTTSVAKIAQYKRKLMDLSHRTLQVLIKQEIQRKSGYAIQADEEQLRVQLDTIQGELNAPTQFKGRLNELMSQIRMQNHFGAVRSEERYYIDADLLREIKQHLKQQQEGLSHLISIIKDDLEDIKLVEHGLNETIHIRGGVFS
partner: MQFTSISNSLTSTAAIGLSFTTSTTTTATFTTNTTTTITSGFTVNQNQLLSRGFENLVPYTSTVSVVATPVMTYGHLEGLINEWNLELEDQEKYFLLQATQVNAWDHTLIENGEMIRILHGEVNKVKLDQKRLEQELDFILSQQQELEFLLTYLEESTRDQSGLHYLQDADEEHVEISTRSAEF
B7: Tetraspanin-2 (Homo sapiens), O60636 (parent)
chain: MGRFRGGLRCIKYLLLGFNLLFWLAGSAVIAFGLWFRFGGAIKELSSEDKSPEYFYVGLYVLVGAGALMMAVGFFGCCGAMRESQCVLGSFFTCLLVIFAAEVTTGVFAFIGKGVAIRHVQTMYEEAYNDYLKDRGKGNGTLITFHSTFQCCGKESSEQVQPTCPKELLGHKNCIDEIETIISVKLQLIGIVGIGIAGLTIFGMIFSMVLCCAIRNSRDVI
partner: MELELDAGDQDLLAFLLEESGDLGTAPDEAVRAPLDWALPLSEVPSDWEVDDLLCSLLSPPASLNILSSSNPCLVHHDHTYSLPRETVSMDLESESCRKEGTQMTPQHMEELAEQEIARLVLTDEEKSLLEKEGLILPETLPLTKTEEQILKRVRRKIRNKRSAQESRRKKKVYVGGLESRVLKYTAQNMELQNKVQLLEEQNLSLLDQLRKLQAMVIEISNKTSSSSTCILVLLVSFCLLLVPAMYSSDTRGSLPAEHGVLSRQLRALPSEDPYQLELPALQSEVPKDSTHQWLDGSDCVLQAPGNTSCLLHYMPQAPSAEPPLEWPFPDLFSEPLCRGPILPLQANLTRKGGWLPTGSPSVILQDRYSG

Variants of: B1
Conditions: with gpt2l_human GPATCH2L

Row | Variant | effect of a mutation on the interaction
1 | S535N | with no effect

Variants of: B1
Conditions: with zn792_human ZNF792, Q3KQV3
zn792_human ZNF792, Q3KQV3, sequence (Q3KQV3 whole entry): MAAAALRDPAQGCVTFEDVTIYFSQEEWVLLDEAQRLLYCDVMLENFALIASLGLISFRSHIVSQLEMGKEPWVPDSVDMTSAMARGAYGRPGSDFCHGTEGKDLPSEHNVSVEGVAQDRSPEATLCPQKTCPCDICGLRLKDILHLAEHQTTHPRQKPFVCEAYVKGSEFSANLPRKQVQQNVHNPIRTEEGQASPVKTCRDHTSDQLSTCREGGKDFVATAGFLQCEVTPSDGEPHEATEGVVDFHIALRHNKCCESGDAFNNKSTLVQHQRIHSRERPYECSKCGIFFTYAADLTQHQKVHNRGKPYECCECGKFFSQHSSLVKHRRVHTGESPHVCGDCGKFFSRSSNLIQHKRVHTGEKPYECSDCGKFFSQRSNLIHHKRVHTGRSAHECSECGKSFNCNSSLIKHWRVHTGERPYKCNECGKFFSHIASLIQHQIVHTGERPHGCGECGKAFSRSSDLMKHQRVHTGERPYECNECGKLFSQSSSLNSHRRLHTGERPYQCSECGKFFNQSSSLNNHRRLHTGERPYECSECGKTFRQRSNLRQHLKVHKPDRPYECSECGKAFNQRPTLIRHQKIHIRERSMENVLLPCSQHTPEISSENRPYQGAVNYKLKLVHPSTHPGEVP

Row | Variant | effect of a mutation on the interaction
2 | S535N | with no effect

Variants of: B1
Conditions: with tri41_human TRIM41, Q8WV44

Row | Variant | effect of a mutation on the interaction
3 | S535N | with no effect

Variants of: B1
Conditions: with aen_human AEN

Row | Variant | effect of a mutation on the interaction
4 | S535N | with no effect

Variants of: B2
Conditions: with fbf1_human FBF1, Q8TES7

Row | Variant | effect of a mutation on the interaction
5 | D59N | with no effect

Variants of: B2
Conditions: with fbf1_human FBF1, Q8TES7
Remark: another data set of the same source

Row | Variant | effect of a mutation on the interaction
6 | S393L | with no effect

Variants of: B3
Conditions: with sat1_human SAT1, P21673
sat1_human SAT1, P21673, sequence (P21673 whole entry): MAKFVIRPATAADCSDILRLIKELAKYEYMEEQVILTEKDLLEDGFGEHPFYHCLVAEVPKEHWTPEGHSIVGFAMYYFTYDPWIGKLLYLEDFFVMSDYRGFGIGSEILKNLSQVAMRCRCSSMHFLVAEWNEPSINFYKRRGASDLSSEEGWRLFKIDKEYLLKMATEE

Row | Variant | effect of a mutation on the interaction
7 | T224I | with no effect

Variants of: B4
Conditions: with htf4_human TCF12, Q99081
htf4_human TCF12, Q99081, sequence (Q99081 whole entry): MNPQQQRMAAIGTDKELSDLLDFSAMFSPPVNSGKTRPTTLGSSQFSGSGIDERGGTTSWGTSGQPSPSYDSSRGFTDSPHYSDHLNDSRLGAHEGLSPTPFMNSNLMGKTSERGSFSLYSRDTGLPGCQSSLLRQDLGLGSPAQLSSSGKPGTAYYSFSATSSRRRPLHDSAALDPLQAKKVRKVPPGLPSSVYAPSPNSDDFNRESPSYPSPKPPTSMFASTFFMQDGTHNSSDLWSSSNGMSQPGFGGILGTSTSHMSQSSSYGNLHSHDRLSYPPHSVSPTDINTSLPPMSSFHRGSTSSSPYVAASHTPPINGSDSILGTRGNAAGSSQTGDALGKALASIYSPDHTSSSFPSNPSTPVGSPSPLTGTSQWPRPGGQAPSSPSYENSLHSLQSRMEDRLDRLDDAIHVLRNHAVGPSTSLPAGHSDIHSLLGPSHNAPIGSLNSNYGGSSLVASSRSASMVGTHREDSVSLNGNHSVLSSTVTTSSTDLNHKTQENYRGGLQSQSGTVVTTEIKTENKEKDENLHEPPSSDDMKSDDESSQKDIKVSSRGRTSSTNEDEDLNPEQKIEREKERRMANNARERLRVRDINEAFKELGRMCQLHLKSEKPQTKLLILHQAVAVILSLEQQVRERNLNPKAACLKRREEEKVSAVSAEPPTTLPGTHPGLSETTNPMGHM

Row | Variant | effect of a mutation on the interaction
8 | F199S | with no effect

Variants of: B5
Conditions: with amol2_human AMOTL2, Q9Y2J4
amol2_human AMOTL2, Q9Y2J4, sequence (Q9Y2J4 whole entry): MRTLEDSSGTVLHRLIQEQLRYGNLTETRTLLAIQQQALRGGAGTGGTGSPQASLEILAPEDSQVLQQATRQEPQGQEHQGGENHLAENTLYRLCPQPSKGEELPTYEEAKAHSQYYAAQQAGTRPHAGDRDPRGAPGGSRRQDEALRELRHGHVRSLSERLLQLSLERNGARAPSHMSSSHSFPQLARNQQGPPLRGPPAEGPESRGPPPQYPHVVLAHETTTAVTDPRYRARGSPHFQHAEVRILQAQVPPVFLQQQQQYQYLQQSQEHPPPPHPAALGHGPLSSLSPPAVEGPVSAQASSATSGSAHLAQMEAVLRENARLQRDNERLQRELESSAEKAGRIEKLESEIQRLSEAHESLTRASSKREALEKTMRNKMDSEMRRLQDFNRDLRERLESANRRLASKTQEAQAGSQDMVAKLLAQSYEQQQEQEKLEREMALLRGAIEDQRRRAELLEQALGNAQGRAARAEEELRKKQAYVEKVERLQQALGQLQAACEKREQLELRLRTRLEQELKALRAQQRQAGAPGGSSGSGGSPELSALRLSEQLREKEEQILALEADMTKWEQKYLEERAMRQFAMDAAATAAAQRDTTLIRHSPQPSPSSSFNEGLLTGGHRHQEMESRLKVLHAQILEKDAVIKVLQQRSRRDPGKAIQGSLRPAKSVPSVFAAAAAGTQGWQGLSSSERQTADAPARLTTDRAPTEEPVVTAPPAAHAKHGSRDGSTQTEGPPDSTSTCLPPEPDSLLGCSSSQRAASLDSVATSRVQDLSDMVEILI

Row | Variant | effect of a mutation on the interaction
9 | E348D | with no effect
10 | S55P | with no effect
11 | A605P | with no effect

Variants of: B5
Conditions: with txlna_human TXLNA

Row | Variant | effect of a mutation on the interaction
12 | E348D | with no effect
13 | S55P | with no effect
14 | A605P | with no effect

Variants of: B5
Conditions: with atf4_human ATF4, P18848
atf4_human ATF4, P18848, sequence (P18848 whole entry): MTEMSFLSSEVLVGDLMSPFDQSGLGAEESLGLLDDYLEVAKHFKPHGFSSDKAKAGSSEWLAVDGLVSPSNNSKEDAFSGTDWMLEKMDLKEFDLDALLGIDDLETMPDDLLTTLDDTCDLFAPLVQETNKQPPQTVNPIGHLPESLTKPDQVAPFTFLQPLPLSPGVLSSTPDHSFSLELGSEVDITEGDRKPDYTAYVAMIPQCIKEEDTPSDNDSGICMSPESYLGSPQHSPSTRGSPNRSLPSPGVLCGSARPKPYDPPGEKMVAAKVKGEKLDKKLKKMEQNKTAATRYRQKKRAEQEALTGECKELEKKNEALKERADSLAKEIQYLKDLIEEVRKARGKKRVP

Row | Variant | effect of a mutation on the interaction
15 | E348D | with no effect
16 | S55P | with no effect
17 | A605P | disrupting interaction strength

Variants of: B5
Conditions: with tnip1_human TNIP1, Q15025
tnip1_human TNIP1, Q15025, sequence (Q15025 whole entry): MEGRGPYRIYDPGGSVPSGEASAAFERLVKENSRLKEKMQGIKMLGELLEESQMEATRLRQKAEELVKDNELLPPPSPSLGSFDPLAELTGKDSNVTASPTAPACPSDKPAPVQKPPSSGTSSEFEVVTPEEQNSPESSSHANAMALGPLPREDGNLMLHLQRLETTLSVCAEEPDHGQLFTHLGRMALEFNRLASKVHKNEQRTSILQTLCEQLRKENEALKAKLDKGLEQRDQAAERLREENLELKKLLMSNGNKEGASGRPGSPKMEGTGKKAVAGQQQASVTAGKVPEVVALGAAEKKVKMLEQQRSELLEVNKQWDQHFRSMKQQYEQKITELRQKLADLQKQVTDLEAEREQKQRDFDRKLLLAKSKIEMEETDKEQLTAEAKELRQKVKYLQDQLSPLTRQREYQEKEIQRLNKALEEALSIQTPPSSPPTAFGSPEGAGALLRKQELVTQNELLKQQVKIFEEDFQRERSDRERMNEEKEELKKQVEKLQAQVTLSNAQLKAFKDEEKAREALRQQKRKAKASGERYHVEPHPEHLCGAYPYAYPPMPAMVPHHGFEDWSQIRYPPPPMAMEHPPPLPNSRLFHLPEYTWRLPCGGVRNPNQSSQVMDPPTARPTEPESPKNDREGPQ

Row | Variant | effect of a mutation on the interaction
18 | E348D | with no effect
19 | S55P | with no effect
20 | A605P | disrupting interaction strength

Variants of: B6
Conditions: with NUP62CL

Row | Variant | effect of a mutation on the interaction
21 | T416A | with no effect

Variants of: B6
Conditions: with NUP62CL
Remark: another data set of the same source

Row | Variant | effect of a mutation on the interaction
22 | R385K | with no effect
23 | N250S | with no effect

Variants of: B7
Conditions: with creb3_human CREB3, O43889

Row | Variant | effect of a mutation on the interaction
24 | R118L | with no effect
